Assay results reported in patent US20240343803A1 (SHANDONG SIMCERE BIOPHARMACEUTICAL, published 2024).
Where “and” joins values, the source holds several entries; their conditions need not be identical. Equal values may be shown once.

B1: PVRIG-A105-H1 (VHH)
VHH: EVQLVESGGGLVQPGGSLRLSCAASGRTFDRHTMSWFRQAPGKEREFVATASRIPGDTYYVDSVKGRFTISRDNAKNSLYLQMNSLRAEDTAVYYCAATSAYCSEVDCYEKGSWYDNWGQGTMVTVSS
notes: humanized VHH; also called A105.VH1
B2: TIGIT-005-H2L1 (antibody, V domains shown)
VH: EVQLVQSGAEVKKPGASVKVSCKASGYAFTNYLIEWVRQAPGQRLEWMGVINPGSGGTNYKEKFKGRVTITADKSSSTAYMELSSLRSEDTAVYYCARGEYFFFDYWGQGTTVTVSS
VL: DIVMTQSPDSLAVSLGERATINCKASQHVSNGVAWYQHKPGQSPKLLIYSASYRYTGVPDRFSGSGSGTDFTLTISSLQAEDVAVYYCQQHYNTPHTFGGGTKVEIK
notes: Humanized anti-TIGIT antibody

Legend:
[1] = target: T1, human PVRIG on FlpinCHO-PVRIG cells (human, UniProt Q6DKI7 41-326); assay: FACS, FlpinCHO-hPVRIG cells
T1 construct: whole, on cells; also called FlpinCHO-hPVRIG; FlpinCHO-human PVRIG
T1 sequence (looked up): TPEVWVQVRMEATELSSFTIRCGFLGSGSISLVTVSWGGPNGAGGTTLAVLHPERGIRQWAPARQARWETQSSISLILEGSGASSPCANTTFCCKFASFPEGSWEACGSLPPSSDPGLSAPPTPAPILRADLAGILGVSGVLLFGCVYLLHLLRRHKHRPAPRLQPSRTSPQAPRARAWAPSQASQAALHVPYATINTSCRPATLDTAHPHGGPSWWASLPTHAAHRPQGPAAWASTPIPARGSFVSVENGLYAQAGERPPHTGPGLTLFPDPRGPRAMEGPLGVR
Description: (§1) CHO-K1 stable cells ([…]-61™) transfected with human or cynomolgus monkey PVRIG high expression plasmids were named FlpinCHO-hPVRIG and FlpinCHO-cynoPVRIG. […] After discarding the cell culture medium, the cells were rinsed with PBS and digested for 8-10 minutes by adding 1 mL Versene (Gibico, 15040-066). The Ham's F12 (Gibico, 21127-022) complete medium containing 10% FBS was then added to terminate the digestion and acquire cell suspension. After cell counting, an appropriate amount of cell suspension was centrifuged at 350×g to remove the supernatant, washed twice with PBS, stained with Zombie violet (Biolegend, 423114) and incubated at room temperature for 20 minutes. After incubation, the cells were added with staining buffer (2% FBS+PBS) to stop staining, centrifuged at 350×g to remove the supernatant, washed twice and resuspended with staining buffer to a density of 2×10⁶ cells/mL. The cells were plated into a 96-well plate (50 μL of cell suspension per well) for further use. The antibodies were diluted from the highest concentration of 46 nM (two-fold concentration) with staining buffer by 3.3-fold serial dilution. The diluted antibodies were added to the well containing 50 μL of cell suspension. […] After staining, the cells were washed twice with staining buffer, finally resuspended with 200 μL staining buffer and analyzed by flow cytometry (BD, Canto II).

[2] = target: T2, cynomolgus monkey PVRIG on FlpinCHO-cyno PVRIG cells (cynomolgus monkey, UniProt A0A2K5WVV8 41-322); assay: FACS, FlpinCHO cynomolgus monkey PVRIG cells
T2 construct: whole, on cells; also called FlpinCHO-cynomolgus monkey PVRIG
T2 sequence: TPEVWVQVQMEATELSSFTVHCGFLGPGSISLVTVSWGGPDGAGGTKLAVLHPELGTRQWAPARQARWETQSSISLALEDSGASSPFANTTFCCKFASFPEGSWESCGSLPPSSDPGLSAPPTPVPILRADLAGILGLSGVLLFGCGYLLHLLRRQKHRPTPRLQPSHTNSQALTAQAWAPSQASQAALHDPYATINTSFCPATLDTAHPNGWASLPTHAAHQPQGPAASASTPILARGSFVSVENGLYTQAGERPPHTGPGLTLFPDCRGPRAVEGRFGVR
Description: as §1

[3] = target: T3, human PVRIG-mFc protein (Acro, PVG-H5253) (human, UniProt Q6DKI7 41-171, limits assumed); assay: competition FACS; blocked: PVRIG-mFc binding to CHO-K1 CD112 cells
T3 construct: bought reagent; also called PVRIG-ECD-mFc
T3 sequence (looked up): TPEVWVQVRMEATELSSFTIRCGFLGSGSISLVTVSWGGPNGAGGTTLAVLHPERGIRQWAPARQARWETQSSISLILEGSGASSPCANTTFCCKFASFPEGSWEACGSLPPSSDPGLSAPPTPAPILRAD
Description: The Ham's F12 (Gibico, 21127-022) complete medium containing 10% FBS was then added to stop the digestion and acquire cell suspension. After counting with a cell counter (Beckman Coulter, Vi-CELL), an appropriate amount of cell suspension was centrifuged at 350×g to remove the supernatant, washed twice with PBS, stained with Zombie violet (Biolegend, 423114) and incubated at room temperature for 20 minutes. After incubation, the cells were added with staining buffer (2% FBS+PBS) to stop staining, centrifuged at 350×g to remove the supernatant, washed twice and resuspended with staining buffer to a density of 2×10⁶ cells/mL. The cells were plated into a 96-well plate (50 μL of cell suspension per well) for further use. A working solution of human PVRIG-mFc protein (Acro, PVG-H5253) prepared with staining buffer, 1 μg/mL (four-fold concentration), was added into a 96-well plate (50 μL PVRIG-mFc working solution per well). […] The diluted antibodies were added to the well containing 50 μL of PVRIG-mFc. The plate was placed on a microplate shaker at 400 rpm for 1 minute to fully mix the antibodies and PVRIG-mFc proteins, and then incubated at 4° C. for 30 minutes. After the incubation, the cell suspension prepared above (100 μL) was added into the wells, gently mixed with the pipette tip and incubated at 4° C. for 30 minutes. After the incubation, the cells were washed twice with staining buffer (200 μL per well) and centrifuged at 350×g for 5 minutes to discard the supernatant. The PE goat anti-mouse IgG Fc antibody (Biolegend, 405337) was diluted 250 times with staining buffer, added into the washed wells (100 μL per well), mixed well, and stained at 4° C. for 30 minutes. After staining, the cells were washed twice with staining buffer, finally resuspended with 200 μL staining buffer and analyzed by flow cytometry (BD, Canto II). The weaker the fluorescence signal, the stronger the ability of the antibodies blocks the binding of CHO-K1 human CD112 cells to the PVRIG-mFc protein.

[4] = target: T4, Fusion protein of extracellular domain of human TIGIT and His-tag (human TIGIT ECD-his) (human); assay: BIAcore
T4 chain: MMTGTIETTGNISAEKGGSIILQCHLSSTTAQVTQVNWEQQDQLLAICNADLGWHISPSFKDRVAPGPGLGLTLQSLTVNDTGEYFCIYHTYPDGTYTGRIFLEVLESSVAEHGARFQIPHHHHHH

[5] = target: T4, Fusion protein of extracellular domain …; assay: BIAcore (second series)
[6] = target: T5, Fusion protein of extracellular domain of human TIGIT and mouse IgG2a Fc fragment (human TIGIT ECD-mFc) (human); assay: ELISA, human TIGIT ECD-mFc
T5 construct: The entry includes the signal peptide (limits not recoverable) and the mouse IgG2a Fc
T5 chain: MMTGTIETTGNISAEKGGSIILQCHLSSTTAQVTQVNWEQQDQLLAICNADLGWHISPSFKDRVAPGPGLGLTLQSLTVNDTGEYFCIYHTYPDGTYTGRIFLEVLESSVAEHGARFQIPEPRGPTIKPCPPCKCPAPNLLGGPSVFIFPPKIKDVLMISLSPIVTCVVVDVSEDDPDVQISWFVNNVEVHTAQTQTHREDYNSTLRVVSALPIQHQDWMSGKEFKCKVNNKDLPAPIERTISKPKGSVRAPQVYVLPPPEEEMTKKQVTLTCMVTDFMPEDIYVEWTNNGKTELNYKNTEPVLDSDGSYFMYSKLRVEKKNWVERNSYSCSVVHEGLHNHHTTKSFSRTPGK
Outline: (§2)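 Plates blocked with 5% skim milk-PBS at 37° C for 2-4 h. Test antibodies applied as a 12-point 3-fold series from 13 nM for 1.5-2 h at 37° C. Read-out: HRP secondary (1:5000, 1 h, 37° C), TMB colour for 7-10 min at room temperature, acid stop, absorbance at OD450 nm.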

[7] = target: T4, Fusion protein of extracellular domain …; assay: BIAcore; KD ratio to TIGIT-CHI-005
[8] = target: T6, Fusion protein of extracellular domain of cynomolgus monkey TIGIT and mouse IgG2a Fc fragment (cynomolgus … (cynomolgus monkey)); assay: ELISA, cynomolgus monkey TIGIT ECD-mFc
T6 construct: The entry includes the signal peptide (limits not recoverable) and the mouse IgG2a Fc
Outline: as §2

[9] = target: T7, Full-length cynomolgus monkey TIGIT on CHO-K1 cells (CHO-K1 cynomolgus monkey TIGIT) (cynomolgus monkey); assay: cell binding, CHO-K1 cynomolgus monkey TIGIT
T7 construct: NCBI XP_015300911.1
Outline: (§3)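 Binding was measured by flow cytometry after a 60-minute, 4° C incubation of the antibodies with 2×10⁵ CHO-K1 cells displaying full-length human or cynomolgus monkey TIGIT. Antibody titration: 12 points, threefold serial dilution from 80 nM, in 1% BSA-PBS.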

[10] = target: T4, Fusion protein of extracellular domain …; assay: BIAcore (second series); serves as reference of r34-r37
[11] = target: T8, Fusion protein of extracellular domain of human TIGIT and human IgG1 Fc fragment (human TIGIT ECD-hFc) (human); assay: blocking of TIGIT ECD-hFc binding to CHO-K1 CD155 cells
T8 construct: The entry includes the signal peptide (limits not recoverable) and the human IgG1 Fc
Outline: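 IC50 values come from inhibition curves in a cell-based ELISA using CHO-K1 CD155 cells. Antibodies premixed for 0.5 h with human TIGIT ECD-hFc (working concentration 30 ng/mL) were added to the fixed, blocked cells for 1.5-2 h at 37° C. Bound TIGIT was then detected with HRP secondary antibody and TMB at OD450 nm.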

[12] = target: T9, Full-length human TIGIT on CHO-K1 cells (CHO-K1 human TIGIT) (human, UniProt Q495A1 22-244); assay: cell binding, CHO-K1 human TIGIT high expression strain
T9 construct: NCBI XP_024309156.1; the entry includes the signal peptide (limits not recoverable); The strain (high, medium, low) is named under assay; also called high expression strain 1D2; medium expression strain 2D10
T9 sequence: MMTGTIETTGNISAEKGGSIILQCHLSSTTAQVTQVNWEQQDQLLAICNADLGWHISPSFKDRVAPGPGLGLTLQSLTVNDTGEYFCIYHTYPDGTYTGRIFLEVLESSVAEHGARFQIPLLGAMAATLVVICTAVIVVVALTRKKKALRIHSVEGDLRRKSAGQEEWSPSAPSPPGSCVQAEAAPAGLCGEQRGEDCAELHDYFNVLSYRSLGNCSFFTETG
Outline: as §3

T7 sequence (chain, as listed by the source limits assumed): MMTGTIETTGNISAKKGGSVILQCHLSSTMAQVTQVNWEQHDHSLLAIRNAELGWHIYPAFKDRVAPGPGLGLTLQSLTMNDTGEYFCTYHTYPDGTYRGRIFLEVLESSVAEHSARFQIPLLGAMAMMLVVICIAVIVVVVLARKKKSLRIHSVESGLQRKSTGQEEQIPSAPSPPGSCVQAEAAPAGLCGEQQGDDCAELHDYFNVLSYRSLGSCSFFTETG

Binder	EC50 (read off the curve) [1] [nM]	EC50 (read off the curve) [2] [nM]	IC50 (read off the curve) [3] [nM]	Kd [4] [nM]	koff [4] [s⁻¹]	kon [4] [M⁻¹ s⁻¹]	Kd [5] [nM]	koff [5] [s⁻¹]	kon [5] [M⁻¹ s⁻¹]	EC50 [6]	Fold change vs chimeric antibodies (KD) [7] [fold]	EC50 [8]	EC50 [9]	Fold change vs chimeric antibodies (KD) [10] [fold]	IC50 [11]	EC50 [12]
B1	~0.5	~0.4	~1	–	–	–	–	–	–	–	–	–	–	–	–	–
B2	–	–	–	0.0378	0.000161	4.26e+06	0.0742	0.000263	3.54e+06	0.0141 nM and 0.0247 nM	1.37	0.0145 nM and 0.0393 nM	0.0199 nM and 0.047 nM	1	0.321 nM and 0.389 nM	0.0281 nM and 0.0272 nM
